Measured values as given in patent publication US20260201347A1, “ARTIFICIAL BIFUNCTIONAL ENZYME COMPRISING A MYELOPEROXIDASE ACTIVITY AND A GLUCOSE OXIDASE ACTIVITY AND APPLICATIONS THEREOF” (UNIVERSITÉ DE BORDEAUX, priority 2022, published 2026).

Tests used:
Format in all cases: biochemical, Rhodopirellula baltica / Penicillium amagasakiens
Details in all cases: fixed NaCl 20 mM, pH7.5, pH 7.5
[1] = substrate: OC[C@H]1OC(O)[C@H](O)[C@@H](O)[C@@H]1O; test: Coupled active sites, HOCl production from glucose, APF assay (Table 9), linker LEKRPEAEA
Procedure: (§1) Each experiment was performed in triplicate.
(§2) The activity of the two active sites was then assessed in conjunction to each other (FIG. 1).
(§3) Briefly, the aim was to measure the production of HOCl from glucose and NaCl as respective substrates of the enzymes, using the APF probe. Two types of kinetics were performed: • i) kinetics at various concentrations of glucose and a fixed concentration of NaCl, and • ii) kinetics at various concentration of NaCl and a fixed concentration of glucose.

[2] = substrate: OC[C@H]1OC(O)[C@H](O)[C@@H](O)[C@@H]1O; test: Coupled active sites, HOCl production from glucose, APF assay (Table 9), linker LEGGEAEA
Procedure: as §1, §2, §3

[3] = substrate: OC[C@H]1OC(O)[C@H](O)[C@@H](O)[C@@H]1O; test: Coupled active sites, HOCl production from glucose, APF assay (Table 9), linker GGGGGGGG
Procedure: as §1, §2, §3

B1: RbMPO-LEKRPEAEA-GOx chimera (Rhodopirellula baltica myeloperoxidase, SEQ ID NO: 10; linker SEQ ID NO: 8; Penicillium amagasakiens glucose oxidase, SEQ ID NO: … (protein)
chain: MLFWSKRTRKHPGRKRRRLRSEQLESRQLLAADFGGYRHNIYDAEDVNDDGRVSAIDALLVINAMTSETSRDENVFTDVNGDGRRSALDALRVINRIERGDVFPIDTSGDEDLNTLLPEMPSEVRSIDGSGNNPNDHLWGSVGQRLIRMAPAAYGDGISTLAGANRPSAREVSNVLSAMNTSQVLNDRGLSAFVYVWGQFIDHDLGLTESDEHGEAIDISVPEGDLWFDPMGSGEAVIPMTRTPIADGTGTSVGNPAQQFNQITAFIDGSMVYGSDAATAERLRTFAGGRLAISDNGLLPMDESGMVIAGDVRASENVGLTAIQTLFVREHNRLADEIFAADPEATDEEIYQRARLVVASLIQSITYNEFLPALLGQRAMDSYRGYDASVNPGIANEFSTAAFRLGHSTLRDEVGFMSNDGRESKDEMELKDAFFHASMLEETGIDSLLKFDASVQAQEIDLAVVDSLRNFLFGPPGAGGLDLVAMNIQRGRDHGLSDYNTTRQAYGLDRVETFDQITGDVELQQKLASLYGTVDNIDLWVGLMAEDHQHDASVGELTGLIIADQFQRTRDGDRFFYKNVLTDSEVESIERSTLADLIERNTSVDGLQENVFFMQVELRGRVILASSIPPNTMPSEVREEEIRGVSGMAIELIDASGKLVDSTVSDQHGNYRFRALSETGDYQVRLSESGEAMDVLVAHGAERIRGLDFIVLALEKRPEAEAYLPAQQIDVQSSLLSDPSKVAGKTYDYIIAGGGLTGLTVAAKLTENPKIKVLVIEKGFYESNDGAIIEDPNAYGQIFGTTVDQNYLTVPLINNRTNNIKAGKGLGGSTLINGDSWTRPDKVQIDSWEKVFGMEGWNWDNMFEYMKKAEAARTPTAAQLAAGHSFNATCHGTNGTVQSGARDNGQPWSPIMKALMNTVSALGVPVQQDFLCGHPRGVSMIMNNLDENQVRVDAARAWLLPNYQRSNLEILTGQMVGKVLFKQTASGPQAVGVNFGTNKAVNFDVFAKHEVLLAAGSAISPLILEYSGIGLKSVLDQANVTQLLDLPVGINMQDQTTTTVSSRASSAGAGQGQAVFFANFTETFGDYAPQARDLLNTKLDQWAEETVARGGFHNVTALKVQYENYRNWLLDEDVAFAELFMDTEGKINFDLWDLIPFTRGSVHILSSDPYLWQFANDPKFFLNEFDLLGQAAASKLARDLTSQGAMKEYFAGETLPGYNLVQNATLSQWSDYVLQNFRPNWHAVSSCSMMSRELGGVVDATAKVYGTQGLRVIDGSIPPTQVSSHVMTIFYGMALKVADAILDDYAKSA
notes: 6His (in the pET21a vector behind the XhoI site); made in house; host or cells: E. coli BL21Star (DE3)
Km ([1]; other: dimer/monomer): 2160 ± 1480 µM
kcat ([1]; other: dimer/monomer): 0.000642 s⁻¹
kcat/Km ([1]; other: dimer/monomer): 0.298 ± 0.235 M⁻¹ s⁻¹
Km ([1]; other: excluded): 22600 ± 6500 µM
kcat ([1]; other: excluded): 0.000365 s⁻¹
kcat/Km ([1]; other: excluded): 0.016 ± 0.005 M⁻¹ s⁻¹
Km ([1]; other: trimer): 1056 ± 496 µM
kcat ([1]; other: trimer): 0.000156 s⁻¹
kcat/Km ([1]; other: trimer): 0.148 ± 0.081 M⁻¹ s⁻¹

B2: RbMPO-LEGGEAEA-GOx chimera (Rhodopirellula baltica myeloperoxidase, SEQ ID NO: 10; linker SEQ ID NO: 4; Penicillium amagasakiens glucose oxidase, SEQ ID NO: … (protein)
chain: MLFWSKRTRKHPGRKRRRLRSEQLESRQLLAADFGGYRHNIYDAEDVNDDGRVSAIDALLVINAMTSETSRDENVFTDVNGDGRRSALDALRVINRIERGDVFPIDTSGDEDLNTLLPEMPSEVRSIDGSGNNPNDHLWGSVGQRLIRMAPAAYGDGISTLAGANRPSAREVSNVLSAMNTSQVLNDRGLSAFVYVWGQFIDHDLGLTESDEHGEAIDISVPEGDLWFDPMGSGEAVIPMTRTPIADGTGTSVGNPAQQFNQITAFIDGSMVYGSDAATAERLRTFAGGRLAISDNGLLPMDESGMVIAGDVRASENVGLTAIQTLFVREHNRLADEIFAADPEATDEEIYQRARLVVASLIQSITYNEFLPALLGQRAMDSYRGYDASVNPGIANEFSTAAFRLGHSTLRDEVGFMSNDGRESKDEMELKDAFFHASMLEETGIDSLLKFDASVQAQEIDLAVVDSLRNFLFGPPGAGGLDLVAMNIQRGRDHGLSDYNTTRQAYGLDRVETFDQITGDVELQQKLASLYGTVDNIDLWVGLMAEDHQHDASVGELTGLIIADQFQRTRDGDRFFYKNVLTDSEVESIERSTLADLIERNTSVDGLQENVFFMQVELRGRVILASSIPPNTMPSEVREEEIRGVSGMAIELIDASGKLVDSTVSDQHGNYRFRALSETGDYQVRLSESGEAMDVLVAHGAERIRGLDFIVLALEGGEAEAYLPAQQIDVQSSLLSDPSKVAGKTYDYIIAGGGLTGLTVAAKLTENPKIKVLVIEKGFYESNDGAIIEDPNAYGQIFGTTVDQNYLTVPLINNRTNNIKAGKGLGGSTLINGDSWTRPDKVQIDSWEKVFGMEGWNWDNMFEYMKKAEAARTPTAAQLAAGHSFNATCHGTNGTVQSGARDNGQPWSPIMKALMNTVSALGVPVQQDFLCGHPRGVSMIMNNLDENQVRVDAARAWLLPNYQRSNLEILTGQMVGKVLFKQTASGPQAVGVNFGTNKAVNFDVFAKHEVLLAAGSAISPLILEYSGIGLKSVLDQANVTQLLDLPVGINMQDQTTTTVSSRASSAGAGQGQAVFFANFTETFGDYAPQARDLLNTKLDQWAEETVARGGFHNVTALKVQYENYRNWLLDEDVAFAELFMDTEGKINFDLWDLIPFTRGSVHILSSDPYLWQFANDPKFFLNEFDLLGQAAASKLARDLTSQGAMKEYFAGETLPGYNLVQNATLSQWSDYVLQNFRPNWHAVSSCSMMSRELGGVVDATAKVYGTQGLRVIDGSIPPTQVSSHVMTIFYGMALKVADAILDDYAKSA
notes: as for B1
Km ([2]; other: dimer/monomer): 629 ± 295 µM
kcat ([2]; other: dimer/monomer): 0.000315 s⁻¹
kcat/Km ([2]; other: dimer/monomer): 0.5 ± 0.259 M⁻¹ s⁻¹
Km ([2]; other: excluded): 65600 ± 14200 µM
kcat ([2]; other: excluded): 0.00056 s⁻¹
kcat/Km ([2]; other: excluded): 0.00853 ± 0.00215 M⁻¹ s⁻¹
Km ([2]; other: monomer 1): 8820 ± 4870 µM
kcat ([2]; other: monomer 1): 0.00123 s⁻¹
kcat/Km ([2]; other: monomer 1): 0.139 ± 0.095 M⁻¹ s⁻¹
Km ([2]; other: monomer 2): 1380 ± 671 µM
kcat ([2]; other: monomer 2): 0.00377 s⁻¹
kcat/Km ([2]; other: monomer 2): 2.73 ± 1.5 M⁻¹ s⁻¹

B3: RbMPO-GGGGGGGG-GOx chimera (Rhodopirellula baltica myeloperoxidase, SEQ ID NO: 10; linker SEQ ID NO: 9; Penicillium amagasakiens glucose oxidase, SEQ ID NO: … (protein)
chain: MLFWSKRTRKHPGRKRRRLRSEQLESRQLLAADFGGYRHNIYDAEDVNDDGRVSAIDALLVINAMTSETSRDENVFTDVNGDGRRSALDALRVINRIERGDVFPIDTSGDEDLNTLLPEMPSEVRSIDGSGNNPNDHLWGSVGQRLIRMAPAAYGDGISTLAGANRPSAREVSNVLSAMNTSQVLNDRGLSAFVYVWGQFIDHDLGLTESDEHGEAIDISVPEGDLWFDPMGSGEAVIPMTRTPIADGTGTSVGNPAQQFNQITAFIDGSMVYGSDAATAERLRTFAGGRLAISDNGLLPMDESGMVIAGDVRASENVGLTAIQTLFVREHNRLADEIFAADPEATDEEIYQRARLVVASLIQSITYNEFLPALLGQRAMDSYRGYDASVNPGIANEFSTAAFRLGHSTLRDEVGFMSNDGRESKDEMELKDAFFHASMLEETGIDSLLKFDASVQAQEIDLAVVDSLRNFLFGPPGAGGLDLVAMNIQRGRDHGLSDYNTTRQAYGLDRVETFDQITGDVELQQKLASLYGTVDNIDLWVGLMAEDHQHDASVGELTGLIIADQFQRTRDGDRFFYKNVLTDSEVESIERSTLADLIERNTSVDGLQENVFFMQVELRGRVILASSIPPNTMPSEVREEEIRGVSGMAIELIDASGKLVDSTVSDQHGNYRFRALSETGDYQVRLSESGEAMDVLVAHGAERIRGLDFIVLAGGGGGGGGYLPAQQIDVQSSLLSDPSKVAGKTYDYIIAGGGLTGLTVAAKLTENPKIKVLVIEKGFYESNDGAIIEDPNAYGQIFGTTVDQNYLTVPLINNRTNNIKAGKGLGGSTLINGDSWTRPDKVQIDSWEKVFGMEGWNWDNMFEYMKKAEAARTPTAAQLAAGHSFNATCHGTNGTVQSGARDNGQPWSPIMKALMNTVSALGVPVQQDFLCGHPRGVSMIMNNLDENQVRVDAARAWLLPNYQRSNLEILTGQMVGKVLFKQTASGPQAVGVNFGTNKAVNFDVFAKHEVLLAAGSAISPLILEYSGIGLKSVLDQANVTQLLDLPVGINMQDQTTTTVSSRASSAGAGQGQAVFFANFTETFGDYAPQARDLLNTKLDQWAEETVARGGFHNVTALKVQYENYRNWLLDEDVAFAELFMDTEGKINFDLWDLIPFTRGSVHILSSDPYLWQFANDPKFFLNEFDLLGQAAASKLARDLTSQGAMKEYFAGETLPGYNLVQNATLSQWSDYVLQNFRPNWHAVSSCSMMSRELGGVVDATAKVYGTQGLRVIDGSIPPTQVSSHVMTIFYGMALKVADAILDDYAKSA
notes: as for B1
Km ([3]; other: dimer/monomer): 2060 ± 1290 µM
kcat ([3]; other: dimer/monomer): 0.00155 s⁻¹
kcat/Km ([3]; other: dimer/monomer): 0.754 ± 0.545 M⁻¹ s⁻¹
Km ([3]; other: excluded): 2760 ± 1060 µM
kcat ([3]; other: excluded): 0.000102 s⁻¹
kcat/Km ([3]; other: excluded): 0.037 ± 0.017 M⁻¹ s⁻¹
Km ([3]; other: monomer): 6196 ± 951 µM
kcat ([3]; other: monomer): 0.000512 s⁻¹
kcat/Km ([3]; other: monomer): 0.083 ± 0.015 M⁻¹ s⁻¹
Km ([3]; other: trimer): 3610 ± 2110 µM
kcat ([3]; other: trimer): 0.000589 s⁻¹
kcat/Km ([3]; other: trimer): 0.163 ± 0.129 M⁻¹ s⁻¹
